Measured values: publication PMC7092940 (2005)

Biological target: the molecule itself

B1: SARS 3CL proteinase (protein)
chain: SGFRKMAFPSGKVEGCMVQVTCGTTTLNGLWLDDTVYCPRHVICTAEDMLNPNYEDLLIRKSNHSFLVQAGNVQLRVIGHSMQNCLLRLKVDTSNPKTPKYKFVRIQPGQTFSVLACYNGSPSGVYQCAMRPNHTIKGSFLNGSCGSVGFNIDYDCVSFCYMHHMELPTGVHAGTDLEGKFYGPFVDRQTAQAAGTDTTITLNVLAWLYAAVINGDRWFLNRFTTTLNDFNLVAMKYNYEPLTQDHVDILGPLSAQTGIAVLDMCAALKELLQNGMNGRTILGSTILEDEFTPFDVVRQCSGVTFQ
Kd: 14 µM
